Drawing on US20260055207A1 (NATIONAL UNIVERSITY CORPORATION YAMAGATA UNIVERSITY, published 2026), this text covers Kd for 1 molecule.

For this assay, the target named is T1, HER2-hFc (UniProt P04626 23-652).
T1 construct: Immobilized on a CM5 sensor chip; also called HER2 immobilized on a sensor chip; not shown: hFc part
The assay can be described thus: SPR (Biacore T200), HER2-hFc immobilized on CM5 chip, antibody flowed at 1-16 nmol/l. The method, then:
It was examined using a surface plasmon resonance method whether the Herceptin-Okt3 bispecific antibody obtained in Example 1(6) above could maintain a binding to Her2. Specifically: the Herceptin-Okt3 bispecific antibody was allowed to flow over HER2 immobilized on a sensor chip at a predetermined flow rate, and measurement was conducted using an intermolecular interaction analyzer. The Herceptin-Okt3 bispecific antibody purified in Example 1(6) above was diluted with 1×PBS-Tween20 to 1 nmol/l. 2 nmol/l. 4 nmol/l. 8 nmol/l, and 16 nmol/l. After the dilution, a surface plasmon resonance measuring apparatus (Biacore T200, manufactured by Cytiva) was used to measure the binding strength by allowing the diluted solution containing the Herceptin-Okt3 bispecific antibody to flow over HER2-hFc immobilized on a CM5 sensor chip (manufactured by GE Healthcare).
In FIG. 7, the horizontal axis indicates the time (minute), and the vertical axis indicates the response unit (RU).

B1: Herceptin-OKT3 bispecific antibody (bispecific antibody)
heavy 1: not shown
light 1: DIQMTQSPSSLSASVGDRVTITCSASSSVSYMNWYQQTPGKAPKRWIYDTSKLASGVPSRFSGSGSGTDYTFTISSLQPEDIATYYCQQWSSNPFTFGQGTKLQITRTVA
heavy 2: not shown
light 2: not shown
The molecule B1 yielded a dissociation constant (Kd) of 2.25 nM.
